Test results taken from US20210301005A1 (Genentech, published 2021).
Where two headings read alike, the source gives them in different places.

Assays:
[1] = biological target: T1, human TGFβ2, mature receptor-binding domain (human, UniProt P09858 303-414 (pig entry), The mature TGFβ2 is a disulfide-linked homodimer of this 112-residue chain. The 4A11 epitope spans both monomers (p-1207).); assay: BIAcore T200
T1 construct: Peprotech; also called TGFb2
T1 sequence: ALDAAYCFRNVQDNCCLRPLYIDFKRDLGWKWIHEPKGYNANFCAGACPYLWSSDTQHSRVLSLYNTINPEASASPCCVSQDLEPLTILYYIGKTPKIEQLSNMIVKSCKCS

[2] = biological target: T2, human TGFβ3, mature dimeric form (human, UniProt P10600 301-412); assay: BIAcore T200
T2 construct: Peprotech, expressed in E. coli; also called TGFb3
T2 sequence: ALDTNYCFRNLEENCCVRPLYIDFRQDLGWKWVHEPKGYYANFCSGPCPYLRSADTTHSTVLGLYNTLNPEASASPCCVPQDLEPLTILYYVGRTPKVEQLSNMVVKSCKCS

[3] = biological target: T1, human TGFβ2, mature receptor-binding …; assay: BIAcore T200; remark: listed apart in the source
Description: (§1) For binding affinity determinations of all humanized 2A10 antibodies, Surface Plasmon Resonance (SPR) measurement with a BIAcore™-T200 instrument was used. Briefly, series S CM5 biosensor chip with protein A was first applied to capture each humanized 2A10 variant to achieve approximately 100 response units (RU) on each flow cell, following by injection of 3-fold serial dilutions of human TGFβ1, TGFβ2 or TGFβ3 (0.02 nM to 5 nM) in HBS-EP buffer (0.01M HEPES pH 7.4, 0.15M NaCl, 3 mM EDTA and 0.05% v/v surfactant P20) at 25° C. with a flow rate of 50 μl/min for kinetics measurement. Association rates (ko.) and dissociation rates (koff) were calculated using a simple one-to-one Langmuir binding model (BIAcore T200 evaluation software version 2.0) to determine the equilibrium dissociation constant (KD), which was calculated as the ratio koff/kₒₙ.

[4] = biological target: T2, human TGFβ3, mature dimeric form; assay: BIAcore T200; remark: listed apart in the source
Description: as §1

[5] = biological target: T3, human TGFβ1, mature receptor-binding domain (human, UniProt P01137 279-390); assay: cell-based or functional assay
[6] = biological target: T1, human TGFβ2, mature receptor-binding …; assay: cell-based or functional assay
[7] = biological target: T2, human TGFβ3, mature dimeric form; assay: cell-based or functional assay
[8] = biological target: T1, human TGFβ2, mature receptor-binding …; assay: BIAcore T200; remark: listed apart in the source
Description: as §1

[9] = biological target: T2, human TGFβ3, mature dimeric form; assay: BIAcore T200; remark: listed apart in the source
Description: as §1

[10] = biological target: T3, human TGFβ1, mature receptor-binding …; assay: cell-based or functional assay; remark: listed apart in the source
[11] = biological target: T1, human TGFβ2, mature receptor-binding …; assay: cell-based or functional assay; remark: listed apart in the source
[12] = biological target: T2, human TGFβ3, mature dimeric form; assay: cell-based or functional assay; remark: listed apart in the source
[13] = biological target: T1, human TGFβ2, mature receptor-binding …; assay: BIAcore T200; remark: listed apart in the source
Description: as §1
(§2) Binding affinity determinations of all humanized 4A11 antibodies were performed using SPR measurement with a BIAcore™-T200 instrument, as described above in Example 6 ([…]).

[14] = biological target: T2, human TGFβ3, mature dimeric form; assay: BIAcore T200; remark: listed apart in the source
Description: as §1, §2

[15] = biological target: T1, human TGFβ2, mature receptor-binding …; assay: cell-based or functional assay; remark: listed apart in the source
[16] = biological target: T2, human TGFβ3, mature dimeric form; assay: cell-based or functional assay; remark: listed apart in the source
[17] = biological target: T3, human TGFβ1, mature receptor-binding …; assay: cell-based or functional assay; remark: listed apart in the source
[18] = biological target: T1, human TGFβ2, mature receptor-binding …; assay: cell-based or functional assay; remark: listed apart in the source
[19] = biological target: T2, human TGFβ3, mature dimeric form; assay: cell-based or functional assay; remark: listed apart in the source

T3 sequence (P01137 279-390 limits assumed): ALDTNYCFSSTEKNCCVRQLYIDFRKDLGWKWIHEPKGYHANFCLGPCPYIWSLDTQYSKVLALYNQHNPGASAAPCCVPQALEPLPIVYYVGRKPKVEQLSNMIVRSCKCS

B1: h2A10.v1 (antibody, human IgG1, kappa, N297G, V domains shown)
VH: EVQLVESGGGLVQPGPSLRLSCTASGFDFNSYGMSWVRQAPGKGLELVADIVSKTYNYTTYYSDSVKDRFTISRDDSKSIVYLQMNSLKTEDTAVYYCTVAPGGSFDYWGQGTLVTVSS
VL: DIQLTQSPSSLSASVGDRVTITCRASQSVSISRFNLMHWYQHKPGKQPKLLIYRASNLASGIPSRFSGSGSGTDFTLTISSLQPEDFATYYCQHSRESPWTFGGGTKVEIKR
notes: also called humanized 2A10 version 1
- binding result [1]: binds
- binding result [2]: binds

B2: h2A10.v3 (antibody, human IgG1, kappa, N297G, V domains shown)
VH: EVQLLESGGGLVQPGGSLRLSCAASGFDFNSYGMSWVRQAPGKGLELVSDIVSKTYSYTTYYSDSVKDRFTISRDDSKNTLYLQMNSLRAEDTAVYYCTVAPGGSFDYWGQGTLVTVSS
VL: DIQLTQSPSSLSASVGDRVTITCRASQSVSISRFNLMHWYQQKPGKAPKLLIYRASNLASGVPSRFSGSGSGTDFTLTISSLQPEDFATYYCQHSRESPWTFGGGTKVEIKR
notes: human IgG1
- Kd [3]: 0.482 nM
- Kd [4]: 0.0026 nM
- HEKBlue TGFβ blocking IC50 [5]: > 200 nM
- HEKBlue TGFβ blocking IC50 [6]: > 200 nM
- HEKBlue TGFβ blocking IC50 [7]: 0.05 nM

B3: h2A10.v2.N54Q (antibody, human IgG1, kappa, N297G, V domains shown)
VH: EVQLLESGGGLVQPGGSLRLSCAASGFDFNSYGMSWVRQAPGKGLELVADIVSKTYQYTTYYSDSVKDRFTISRDDSKSTVYLQMNSLRAEDTAVYYCTVAPGGSFDYWGQGTLVTVSS
VL: DIQLTQSPSSLSASVGDRVTITCRASQSVSISRFNLMHWYQHKPGKQPKLLIYRASNLASGIPSRFSGSGSGTDFTLTISSLQPEDFATYYCQHSRESPWTFGGGTKVEIKR
- fold drop in TGFβ3 binding against h2A10.v2 [2]: < 2 fold
- Kd [8]: 0.378 nM
- Kd [9]: 0.0025 nM
- HEKBlue TGFβ blocking IC50 [10]: > 200 nM
- HEKBlue TGFβ blocking IC50 [11]: > 200 nM
- HEKBlue TGFβ blocking IC50 [12]: 0.01 nM

B4: h2A10.v2.T56A (antibody, human IgG1, kappa, N297G, V domains shown)
VH: EVQLLESGGGLVQPGGSLRLSCAASGFDFNSYGMSWVRQAPGKGLELVADIVSKTYNYATYYSDSVKDRFTISRDDSKSTVYLQMNSLRAEDTAVYYCTVAPGGSFDYWGQGTLVTVSS
VL: DIQLTQSPSSLSASVGDRVTITCRASQSVSISRFNLMHWYQHKPGKQPKLLIYRASNLASGIPSRFSGSGSGTDFTLTISSLQPEDFATYYCQHSRESPWTFGGGTKVEIKR
- Kd [8]: 0.247 nM
- Kd [9]: 0.001 nM
- HEKBlue TGFβ blocking IC50 [10]: > 200 nM
- HEKBlue TGFβ blocking IC50 [11]: > 200 nM
- HEKBlue TGFβ blocking IC50 [12]: 0.01 nM

B5: h2A10.v4 (antibody, human IgG1, kappa, N297G, V domains shown)
VH: EVQLLESGGGLVQPGGSLRLSCAASGFDFNSYGMSWVRQAPGKGLELVSDIVSKTYNYATYYSDSVKDRFTISRDDSKNTLYLQMNSLRAEDTAVYYCTVAPGGSFDYWGQGTLVTVSS
VL: DIQLTQSPSSLSASVGDRVTITCRASQSVSISRFNLMHWYQQKPGKAPKLLIYRASNLASGVPSRFSGSGSGTDFTLTISSLQPEDFATYYCQHSRESPWTFGGGTKVEIKR
notes: human IgG1
- Kd [3]: 0.3 nM
- Kd [4]: 0.0019 nM
- HEKBlue TGFβ blocking IC50 [5]: > 200 nM
- HEKBlue TGFβ blocking IC50 [6]: > 200 nM
- HEKBlue TGFβ blocking IC50 [7]: 0.01 nM

B6: h2A10.v2.N54S (antibody, human IgG1, kappa, N297G, V domains shown)
VH: EVQLLESGGGLVQPGGSLRLSCAASGFDFNSYGMSWVRQAPGKGLELVADIVSKTYSYTTYYSDSVKDRFTISRDDSKSTVYLQMNSLRAEDTAVYYCTVAPGGSFDYWGQGTLVTVSS
VL: DIQLTQSPSSLSASVGDRVTITCRASQSVSISRFNLMHWYQHKPGKQPKLLIYRASNLASGIPSRFSGSGSGTDFTLTISSLQPEDFATYYCQHSRESPWTFGGGTKVEIKR
- fold drop in TGFβ3 binding against h2A10.v2 [2]: < 2 fold
- Kd [8]: 0.425 nM
- Kd [9]: 0.0024 nM
- HEKBlue TGFβ blocking IC50 [10]: > 200 nM
- HEKBlue TGFβ blocking IC50 [11]: > 200 nM
- HEKBlue TGFβ blocking IC50 [12]: 0.01 nM

B7: h4A11.v7.11 (antibody, human IgG1, kappa, N297G, V domains shown)
VH: EQQLQESGPGLVKPSETLSLTCTVTGFSLSSYTVNWVRQPAGKGLEWIGYISYGGSAYYASWANGRFTISVDSSKNQVSLKLSSVTAADTAVYFCARHMQVGGAPTGSMAAFDPWGPGTLVTVSS
VL: EAVLTQSPGTLSLSPGERATLSCQSSQSVYNNNYLSWFQQKPGQPPRLLIYGASTLTSGVPDRFSGSGSGTDFTLTISRLEPEDFAVYYCAGGYSGSSDKYAFGGGTKVEIKR
- fold drop in binding against h4A11.v7 [1]: 6 fold
- fold drop in binding against h4A11.v7 [2]: 2 fold
- Kd [13]: 0.0401 nM
- Kd [14]: 0.0214 nM
- fold loss of blocking against h4A11.v7 [15]: > 2000 fold
- fold loss of blocking against h4A11.v7 [16]: 118 fold
- HEKBlue TGFβ blocking IC50 [17]: > 200 nM
- HEKBlue TGFβ blocking IC50 [18]: > 200 nM
- HEKBlue TGFβ blocking IC50 [19]: 3.53 nM

B8: h4A11.v7.5 (antibody, V domains shown)
VH: EQQLQESGPGLVKPSETLSLTCTVTGFSLSSYTVNWVRQPAGKGLEWIGYISYGGSAYYASWANGRFTISKDSSKNQVSLKLSSVTAADTAVYFCARHMQVGGAPTGSMAAFDPWGPGTLVTVSS
VL: EAVLTQSPGTLSLSPGERATLSCQSSQSVYNNNYLSWYQQKPGQPPRLLIYGASTLTSGVPDRFSGSGSGTDFTLTISRLEPEDFAVYYCAGGYSGSSDKYAFGGGTKVEIK
- fold drop in binding against h4A11.v7 [1]: ~2 fold
- Kd [13]: 0.0092 nM
- Kd [14]: 0.0093 nM
- fold loss of blocking against h4A11.v7 [15]: ~2 fold
- HEKBlue TGFβ blocking IC50 [17]: > 200 nM
- HEKBlue TGFβ blocking IC50 [18]: 0.16 nM
- HEKBlue TGFβ blocking IC50 [19]: 0.04 nM
